The values below come from US20210113484A1 (NATIONAL UNIVERSITY OF SINGAPORE, published 2021).

Positions count from the first letter of the chain named. In names and notes the source's numbering stands.

The test system of data set [1] is h6NE-GFPuvTEV (h6NE-GFPuv fusion with a TEV protease site between the AfFtn subunit and GFPuv) [GFP: P42212].
Data set [2] has as its target T1, AfFtn with truncated C-terminus and E65K, E128K, E131K, D138A, net positive interior [AfFtnΔC(+)] (Archaeoglobus fulgidus).
T1 construct: 24 copies in the empty shell; about 23 copies where it surrounds one fusion subunit; also called tES(+)
T1 chain: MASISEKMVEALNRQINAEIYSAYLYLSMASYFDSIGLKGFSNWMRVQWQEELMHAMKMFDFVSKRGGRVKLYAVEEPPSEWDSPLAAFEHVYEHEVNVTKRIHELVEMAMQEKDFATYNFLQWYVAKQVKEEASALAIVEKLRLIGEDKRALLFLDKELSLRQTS
In words: gel densitometry of purified protein fractions.

The target of data set [3] is T2, native rLuc (un-fused Renilla luciferase) (Renilla reniformis, UniProt P27652 1-311).
T2 sequence (looked up): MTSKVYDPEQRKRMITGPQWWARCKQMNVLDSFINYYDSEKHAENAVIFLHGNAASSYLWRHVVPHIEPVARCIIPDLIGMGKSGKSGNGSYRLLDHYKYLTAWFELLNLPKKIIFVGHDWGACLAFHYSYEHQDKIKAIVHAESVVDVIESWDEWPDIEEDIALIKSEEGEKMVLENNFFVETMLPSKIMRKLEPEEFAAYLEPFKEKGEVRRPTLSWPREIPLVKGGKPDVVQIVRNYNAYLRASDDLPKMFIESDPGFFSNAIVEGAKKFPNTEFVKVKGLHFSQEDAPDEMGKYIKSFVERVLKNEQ
The data set can be described thus: cell-free encapsulation by pH shift 5.8 to 8; rLuc luminescence. As for the experimental part: The TMB substrate was added for color development and the reaction stopped using 2M H₂SO₄ after 5 mins. Absorbance was recorded at 450 nm. All luciferase reactions took place at ambient temperature (24-27° C.) in a 96-well plate with white interior and were performed at least in triplicates. Following chromatographic purification, equimolar concentrations (500 nM) of purified h6NE-luciferase(+), h6NEluciferase(−), and h6NE-luciferase(+/−) were evaluated for luciferase activity using D-luciferin potassium salt as a substrate. The reaction was initiated by injecting 50μl buffer containing D-luciferin potassium salt (final concentration 200 μM), 50 mM Tris-Cl pH 7.5, 10 mM MgCl₂, 2 mM EDTA, 100 μM ATP, 0.1% BSA, to a 50μl protein sample. Purified tES(+)F116H/tES-rLuc, tES-rLuc, and rLuc were evaluated using Renilla luciferase kit (Promega) with some modifications in the manufacturer's instructions. […] The signal was integrated for 1 min with a 2 s delay and luminescence was measured in Relative Light Units (RLU). […] The steady-state initial velocities, VO, (RLU/sec) for h6NE-luciferase(+/−) and recombinant luciferase were determined by initiating the reaction with different concentration of D-luciferin potassium salt. […] All readings were recorded on a Perkin Elmer Plate reader. […]

The target in data set [4] is T3, native HRPC (un-fused horseradish peroxidase isoenzyme C) (horseradish, UniProt P00433 31-338).
T3 sequence (looked up): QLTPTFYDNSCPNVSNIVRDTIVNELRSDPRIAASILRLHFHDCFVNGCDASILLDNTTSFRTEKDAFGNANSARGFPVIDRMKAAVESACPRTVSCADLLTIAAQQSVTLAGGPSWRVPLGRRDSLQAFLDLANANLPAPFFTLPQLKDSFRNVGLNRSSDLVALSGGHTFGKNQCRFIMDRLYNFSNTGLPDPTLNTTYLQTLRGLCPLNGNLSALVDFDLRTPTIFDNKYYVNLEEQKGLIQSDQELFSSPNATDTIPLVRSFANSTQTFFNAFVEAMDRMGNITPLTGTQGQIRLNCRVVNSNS
The data set can be described thus: cell-free encapsulation by pH shift 5.8 to 8; HRPC activity and thermal shift. As for the experimental part: (§1) With increasing amount of HRPC, denaturation temperature of tES(+)F116H increases. […] Negligible change in the denaturation temperature for 60:10 tES(−)F116H:HRPC indicates unsuccessful encapsulation of HRPC within tES(−)F116H as compared to tES(+)F116H.
(§2) GFP, and HRPC and rLuc activities were determined through fluorescence, colorimetric and luminescence assays, respectively, both from cell lysate and purified proteins. For GFP, fluorescence of tES(+)F116H/tES-GFPuv, tES-GFPuv, and GFPuv was read at 508 nm in a 96-well black polystyrene plate (Fisher Scientific) with excitation wavelength fixed at 395 nm was performed or fluorescence read at 508 nm in a 96-well black polystyrene plate (Fisher Scientific) using supernatant from 10-mg bacterial pellet (induced at 0.8 OD and cultured for 24h). The activity of tES(+)F116H/tES-HRPC, tES-HRPC, and HRPC was assayed using TMB substrate in a 96-well crystal-clear polystyrene plate (Greiner Bio-One). Briefly, fractions were incubated in assay buffer containing 25 mM Tris-HCl pH-8.0, 5 mM CaCl₂, 2.5 μM hemin for 5 mins. […] Absorbance was recorded at 450 nm. […] Following chromatographic purification, equimolar concentrations (500 nM) of purified h6NE-luciferase(+), h6NEluciferase(−), and h6NE-luciferase(+/−) were evaluated for luciferase activity using D-luciferin potassium salt as a substrate.

The target in data set [5] is T4, native GFPuv (un-fused) (UniProt P42212 1-238 = GFP).
T4 construct: Any tag on the un-fused protein is not described
The data set can be described thus: cell-free encapsulation by pH shift 5.8 to 8; GFPuv fluorescence and thermal shift. Here is the method: (§3) FIGS. 18A-18D show effect of different molar ratios and charge of tES subunits on native GFPuv encapsulation in vitro. […] With increasing amount of GFPuv, denaturation temperature of tES(+)F116H increases. […] Negligible change in the denaturation temperature for 60:10 tES(−)F116H:GFPuv indicates unsuccessful encapsulation of GFPuv within tES(−)F116H as compared to tES(+)F116H. In 18A+ve control is tES:tES-GFPuv (0.5 μM); −ve control is GFPuv. In 18B+ve controls are tES(+)F116H:tES-GFPuv and tES(−)F116H:tES-GFPuv.
as §2, with “24h).” for “24h). The activity of tES(+)F116H/tES-HRPC, tES-HRPC, and HRPC was assayed using TMB substrate in a 96-well crystal-clear polystyrene plate (Greiner Bio-One). Briefly, fractions were incubated in assay buffer containing 25 mM Tris-HCl pH-8.0, 5 mM CaCl₂, 2.5 μM hemin for 5 mins.”

The target in data set [6] is T4, native GFPuv (un-fused). The data set can be described thus: cell-free encapsulation by pH shift 5.8 to 8; thermal shift assay. As for the experimental part: as §3
Inclusion body purification protocol is same as herein described. […] Fractions around the eluted peak were collected and their activity analyzed to identify fractions containing the POI.

The target in data set [7] is T3, native HRPC (un-fused horseradish …). The data set can be described thus: cell-free encapsulation by pH shift 5.8 to 8; SEC fractions' HRPC activity and thermal shift assay. Here is the method: as §1, §2

In the case of TEVprotease (Sigma), in data set [1], the “TEV protease cleavage, Western blot” value was “the protease cleaved h6NE-GFPuvTEV”.

B1: h6NE-HRPC (His-tagged AfFtn subunit with truncated C-terminus fused to horseradish peroxidase isoenzyme C, C-terminal c-Myc epitope) (other)
chain: MASISEKMVEALNRQINAEIYSAYLYLSMASYFDSIGLKGFSNWMRVQWQEELMHAMKMFDFVSERGGRVKLYAVEEPPSEWDSPLAAFEHVYEHEVNVTKRIHELVEMAMQEKDFATYNFLQWYVAEQVEEEASALDIVEKLRLIGEDKRALLFLDKELSLRQTSQLTPTFYDNSCPNVSNIVRDTIVNELRSDPRIAASILRLHFHDCFVNGCDASILLDNTTSFRTEKDAFGNANSARGFPVIDRMKAAVESACPRTVSCADLLTIAAQQSVTLAGGPSWRVPLGRRDSLQAFLDLANANLPAPFFTLPQLKDSFRNVGLNRSSDLVALSGGHTFGKNQCRFIMDRLYNFSNTGLPDPTLNTTYLQTLRGLCPLNGNLSALVDFDLRTPTIFDNKYYVNLEEQKGLIQSDQELFSSPNATDTIPLVRSFANSTQTFFNAFVEAMDRMGNITPLTGTQGQIRLNCRVVNSNS
notes: also called tES-HRPC; tES-HRP; not shown: N-terminal His-tag from pBAD/HisB
In the case of B1, the “ratio of fusion subunit to encapsulating tES subunits” value in data set [2] was 19 tES subunits per fusion subunit.

B2: tES-rLuc (His-tagged AfFtn subunit with truncated C-terminus fused to Renilla luciferase) (other)
chain: T1 chain with K65E, K128E, K131E, A138D
notes: also called tES-rLuc fusion subunit; not shown: N-terminal His-tag from pBAD/HisB; Renilla luciferase (rLuc), a 36 kDa protein from sea pansy, Renilla reniformis
B2: the “ratio of fusion subunit to encapsulating tES subunits” value in data set [2] was 20 tES subunits per fusion subunit.

B3: tES(+)F116H (other)
chain: T1 chain with F116H
notes: also called F116HAfFtnΔC(+); AfFtn net positive variant subunit with truncation of unstructured C-terminus and F116H mutation
With B3, the binding result in data set [3], in data set [4] and in data set [5] was “binds” each time.

B4: tES(-)F116H (other)
chain: T1 chain with K65E, F116H, K128E, K131E, A138D
notes: also called AfFtn subunit with truncation of unstructured C-terminus and F116H mutation
For the molecule B4, the binding result was “no binding (tested: 60:10 molar ratio)” in data set [6]; “no binding (tested: molar ratios of 60:8 and 60:10)” in data set [7].
